Measurements as given in patent EP4772535A1 (Chia Tai Tianqing Pharmaceutical Group Co., Ltd., dated 2026).

How the values were obtained:
[1] = target: T1, ROR1 naturally expressed on human tumor cell lines (A549, Jeko-1, SW620, PA-1) (human, UniProt Q01973 30-937); assay: FACS on PA-1 cells naturally expressing ROR1
T1 construct: whole, on cells; also called cells expressing ROR1

[2] = target: T1, ROR1 naturally expressed on human tumor …; assay: FACS on SW620 cells naturally expressing ROR1
[3] = target: T1, ROR1 naturally expressed on human tumor …; assay: FACS on Jeko-1 cells naturally expressing ROR1
[4] = target: T2, human/cynomolgus monkey ROR1 protein (Acro Biosystems, Cat. No.: RO1-H522y) (human/cynomolgus monkey, UniProt Q01973 30-403); assay: SPR (Biacore), antibody captured on anti-hIgG CM5 chip, ROR1 protein as analyte, method of Example 5
T2 construct: Bought SPR analyte

[5] = target: T1, ROR1 naturally expressed on human tumor …; assay: FACS on A549 cells naturally expressing ROR1
[6] = target: T1, ROR1 naturally expressed on human tumor …; assay: FACS on SW620 cells naturally expressing ROR1; remark: listed apart in the source
[7] = target: T1, ROR1 naturally expressed on human tumor …; assay: FACS on Jeko-1 cells naturally expressing ROR1; remark: listed apart in the source
[8] = target: T2, human/cynomolgus monkey ROR1 protein …; assay: SPR (Biacore), antibody captured on anti-hIgG CM5 chip, ROR1 protein as analyte, 1:1 model
[9] = target: T1, ROR1 naturally expressed on human tumor …; assay: FACS on PA-1 cells naturally expressing ROR1; remark: listed apart in the source
[10] = target: T1, ROR1 naturally expressed on human tumor …; assay: FACS on SW620 cells naturally expressing ROR1; remark: listed apart in the source
[11] = target: T1, ROR1 naturally expressed on human tumor …; assay: FACS on Jeko-1 cells naturally expressing ROR1; remark: listed apart in the source
[12] = target: T1, ROR1 naturally expressed on human tumor …; assay: FACS on PA-1 cells naturally expressing ROR1; remark: listed apart in the source
[13] = target: T1, ROR1 naturally expressed on human tumor …; assay: FACS on SW620 cells naturally expressing ROR1; remark: listed apart in the source
[14] = target: T1, ROR1 naturally expressed on human tumor …; assay: FACS on Jeko-1 cells naturally expressing ROR1; remark: listed apart in the source

T1 sequence (Q01973 30-937): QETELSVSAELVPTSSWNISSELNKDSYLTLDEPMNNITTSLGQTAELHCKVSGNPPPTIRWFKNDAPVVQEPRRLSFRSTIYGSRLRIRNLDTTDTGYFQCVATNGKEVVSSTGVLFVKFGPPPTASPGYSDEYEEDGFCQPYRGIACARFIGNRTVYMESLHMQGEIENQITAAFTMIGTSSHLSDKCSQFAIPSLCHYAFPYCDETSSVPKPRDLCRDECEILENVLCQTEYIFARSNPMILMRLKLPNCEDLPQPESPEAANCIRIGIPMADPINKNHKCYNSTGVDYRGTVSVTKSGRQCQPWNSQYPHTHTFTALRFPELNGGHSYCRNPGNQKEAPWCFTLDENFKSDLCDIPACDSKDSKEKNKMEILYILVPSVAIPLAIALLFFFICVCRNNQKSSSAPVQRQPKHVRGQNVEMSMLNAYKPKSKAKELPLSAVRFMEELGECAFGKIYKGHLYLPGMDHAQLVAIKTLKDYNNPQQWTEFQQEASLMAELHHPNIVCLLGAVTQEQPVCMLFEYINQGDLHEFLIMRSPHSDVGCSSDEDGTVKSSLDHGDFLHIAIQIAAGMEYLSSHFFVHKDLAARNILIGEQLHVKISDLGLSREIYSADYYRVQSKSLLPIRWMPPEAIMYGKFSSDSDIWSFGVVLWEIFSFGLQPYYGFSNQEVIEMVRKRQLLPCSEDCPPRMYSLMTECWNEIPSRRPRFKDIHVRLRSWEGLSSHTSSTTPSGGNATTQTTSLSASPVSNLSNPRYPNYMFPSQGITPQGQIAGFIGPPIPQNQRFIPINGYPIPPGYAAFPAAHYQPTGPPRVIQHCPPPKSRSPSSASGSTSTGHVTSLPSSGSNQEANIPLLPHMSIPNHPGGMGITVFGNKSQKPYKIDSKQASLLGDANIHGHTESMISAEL
T2 sequence (Q01973 30-403 limits assumed): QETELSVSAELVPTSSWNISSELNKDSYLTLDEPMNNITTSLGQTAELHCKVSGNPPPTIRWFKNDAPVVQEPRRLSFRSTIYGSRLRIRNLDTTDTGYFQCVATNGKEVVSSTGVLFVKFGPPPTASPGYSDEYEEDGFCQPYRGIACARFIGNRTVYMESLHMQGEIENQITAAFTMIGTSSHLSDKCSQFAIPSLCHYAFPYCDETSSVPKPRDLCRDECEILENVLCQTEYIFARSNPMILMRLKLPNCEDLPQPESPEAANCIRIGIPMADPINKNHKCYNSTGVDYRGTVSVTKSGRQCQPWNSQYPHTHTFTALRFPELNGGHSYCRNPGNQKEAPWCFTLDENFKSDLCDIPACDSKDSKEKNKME

Binder	Kd [4] [nM]	koff [4] [s⁻¹]	kon [4] [M⁻¹ s⁻¹]	EC50 [5] [nM]	Top (MFI) [5] [MFI]	EC50 [6] [nM]	Top (MFI) [6] [MFI]	EC50 [7] [nM]	Top (MFI) [7] [MFI]	Kd [8] [nM]	koff [8] [s⁻¹]	kon [8] [M⁻¹ s⁻¹]	EC50 [12] [nM]	Top (MFI) [12] [MFI]	EC50 [13] [nM]	Top (MFI) [13] [MFI]	EC50 [14] [nM]	Top (MFI) [14] [MFI]	also measured
hz135A2B10-1.2 (antibody, human IgG1, kappa, V domains shown, Humanized, human IgG1/kappa) VH: QVQLVESGGGLVQPGGSLRLSCAASGFAFSTYGMAWVRQAPGKGLEWVASIHKGGFSTYYPDNVKGRFTISRDNDKNSLYLQMNSLRAEDTAVYYCIRHDWDGAMDYWGQGTLVTVSS VL: DIQMTQSPSSLSASVGDRVTITCKASQDINSYLNWYQQKPGKAPKTLIYRANRLVDGVPSRFSGSGSGQDYTLTISSLQPEDFATYYCLQFDEFPYTFGQGTKVEIKR	0.569	0.000596	1.05e+06																EC50 [1]: 0.217 nM; Top (MFI) [1]: 238000 MFI; EC50 [2]: 0.034 nM; Top (MFI) [2]: 30400 MFI; EC50 [3]: 0.022 nM; Top (MFI) [3]: 89700 MFI
ch135A2B10 (antibody, human IgG1, kappa, V domains shown, also called chimeric antibody of m135A2B10) VH: DVKLVESGGGLVTPEGSLKLSCAASGFAFSTYGMAWVRQTPEKRLEWVASIHKGGFSTYYPDNVKGRFTISRDNDKNTLYLQMSSLKSEDTAMYYCIRHDWDGAMDYWGQGTSVTVSS VL: DIVLTQSPSSMYASLGERVTITCKASQDINSYLNWFQQKPGKSPKTLIYRANRLVDGVPSRFSGSGSGQDYSLTISSLEYEDLGIYYCLQFDEFPYTFGGGTKLEIKR				0.094	87800	0.06	29800	0.037	71900	0.586	0.000551	941000							
hz29H5D8-3.1 (antibody, human IgG1, kappa, V domains shown, Humanized, human IgG1/kappa) VH: QVQLVQSGAEVKKPGSSVKVSCKASGYTFTNYGISWVRQAPGQGLEWMGEIYPRSVNTYYAQKFQGRVTITADKSTSTAYMELSSLRSEDTAVYYCARHYYGSSLDYWGQGTLVTVSS VL: DIQMTQSPSSLSASVGDRVTITCITSSDIEDDMNWYQQKPGKAPKLLISEGNSLRPGVPSRFSSSGYGTDFTFTISSLQPEDIATYYCLQSDNIFTFGQGTKVEIKR	0.112	0.000218	1.95e+06																EC50 [9]: 0.092 nM; Top (MFI) [9]: 247000 MFI; EC50 [10]: 0.011 nM; Top (MFI) [10]: 30700 MFI; EC50 [11]: 0.014 nM; Top (MFI) [11]: 87700 MFI
hz29H5D8-2.1 (antibody, human IgG1, kappa, V domains shown, Humanized, human IgG1/kappa) VH: QVQLVQSGAEVKKPGSSVKVSCKASGYTFTNYGISWVRQAPGQGLEWMGEIYPRSVNTYYAQKFQGRVTITADKSTSTAYMELSSLRSEDTAVYYCARHYYGSSLDYWGQGTLVTVSS VL: DIQMTQSPSSLSASVGDRVTITCITSSDIEDDMNWYQQKPGKAPKLLIYEGNSLRPGVPSRFSSSGYGTDFTFTISSLQPEDIATYYCLQSDNIFTFGQGTKVEIKR	0.589	0.000925	1.57e+06																EC50 [9]: 0.126 nM; Top (MFI) [9]: 239000 MFI; EC50 [10]: 0.015 nM; Top (MFI) [10]: 28600 MFI; EC50 [11]: 0.015 nM; Top (MFI) [11]: 85000 MFI
hz137G11D10-1.1 (antibody, human IgG1, kappa, V domains shown, Humanized, human IgG1/kappa) VH: QVQLQESGPGLVKPSQTLSLTCTVSGYSITSDYAWNWIRQHPGKGLEWIGYITYSASTSYNPSLKSRVTISRDTSKNQFSLKLSSVTAADTAVYYCARGAGTYYFDYWGQGTLVTVSS VL: ETTLTQSPAFMSATPGDKVNISCITSTDIDEDMNWYQQKPGEAAKLIISEDNSLRPGIPPRFSSSGYGTDFTLTINNIESEDAAYYFCLQTNNLPLTFGQGTKVEIKR	0.145	0.000539	3.72e+06										0.075	244000	0.013	32600	0.015	93200	
ch137G11D10 (antibody, human IgG1, kappa, V domains shown, also called chimeric antibody of m137G11D10) VH: DVQLQESGPGLVKPSQSLSLTCTVTGYSITSDYAWNWIRQFPGNKLEWMGYITYSASTSYNPSLKSRISITRDTSKNQFFLQLNSVTTEDTATYYCARGAGTYYFDYWGQGSTLTVSS VL: DIVLTQSPASLSVATGEKVTIRCITSTDIDEDMNWYQQKPGEPPKLLISEDNSLRPGVPSRFSSSGYGTDFVLTIENTLSEDVADYYCLQTNNLPLTFGAGTKLEIKR				0.02	82800	0.01	27300	0.012	71100	0.61	0.00315	5.16e+06							
ch3G9B1 (antibody, human IgG1, kappa, V domains shown, also called chimeric antibody of m3G9B1) VH: QVQLQQSGTELARPGASVKLSCKASGYTFTSYGITWVKQRTGQGLEWIGEIYPRSGNTYFNEKFKGKATLTADKSSSTAYMELRSLTSEDSAVYFCARDRTGTGVDDYWGQGTTLTVSS VL: DIVLTQSPASLSMAIGEKVTIRCITNTDIDDDMSWYQQKPGEPPNLLISEGNTLRPGVPSRFSSSGYGRDFVFTIENMLSEDVADYYCLQSNNLPYTFGGGTKLEIKR				0.03	65200	0.048	20400	0.01	61100	27.1	0.0639	2.36e+06							
ch29H5D8 (antibody, human IgG1, kappa, V domains shown, also called chimeric antibody of m29H5D8) VH: EVQLQQSGAELARPGASVKLSCKASGYTFTNYGISWVKQRTGQGLEWIGEIYPRSVNTYYSAKFKGKATLTADKSSSTAYMELRSLTSEDSAVYFCARHYYGSSLDYWGQGTTLTVSS VL: DIVLTQSPASLSVATGEKVTIRCITSSDIEDDMNWYQQKPGEPPKLLISEGNSLRPGVPSRFSSSGYGTDFVFTIENTLSEDVADYYCLQSDNIFTFGSGTKLEIKR				0.016	78500	0.01	27000	0.011	70400	0.669	0.00248	3.7e+06							

The next lines start with results.

Kd [4] [nM]	koff [4] [s⁻¹]	kon [4] [M⁻¹ s⁻¹]	EC50 [5] [nM]	Top (MFI) [5] [MFI]	EC50 [6] [nM]	Top (MFI) [6] [MFI]	EC50 [7] [nM]	Top (MFI) [7] [MFI]	Kd [8] [nM]	koff [8] [s⁻¹]	kon [8] [M⁻¹ s⁻¹]	EC50 [12] [nM]	Top (MFI) [12] [MFI]	EC50 [13] [nM]	Top (MFI) [13] [MFI]	EC50 [14] [nM]	Top (MFI) [14] [MFI]	Binder	also measured
0.343	0.000811	2.37e+06										0.061	233000	0.009	28500	0.012	86100	hz137G11D10-2.2 (antibody, human IgG1, kappa, V domains shown, Humanized, human IgG1/kappa) VH: QVQLQESGPGLVKPSQTLSLTCTVSGYSITSDYAWNWIRQHPGKGLEWIGYITYSASTSYNPSLKSRVTISRDTSKNQFFLKLSSVTAADTAVYYCARGAGTYYFDYWGQGTLVTVSS VL: DIQMTQSPSSLSASVGDRVTITCITSTDIDEDMNWYQQKPGKAPKLLIYEDNSLRPGVPSRFSGSGYGTDFTLTISSLQPEDFATYYCLQTNNLPLTFGQGTKVEIKR	
0.172	0.000492	2.86e+06										0.063	231000	0.009	30900	0.012	87000	hz137G11D10-3.1 (antibody, human IgG1, kappa, V domains shown, Humanized, human IgG1/kappa) VH: QVQLQESGPGLVKPSQTLSLTCTVSGYSITSDYAWNWIRQHPGKGLEWIGYITYSASTSYNPSLKSRVTISRDTSKNQFSLKLSSVTAADTAVYYCARGAGTYYFDYWGQGTLVTVSS VL: DIQMTQSPSSLSASVGDRVTITCITSTDIDEDMNWYQQKPGKAPKLLISEDNSLRPGVPSRFSSSGYGTDFTLTISSLQPEDFATYYCLQTNNLPLTFGQGTKVEIKR	
0.105	0.000414	3.94e+06										0.092	248000	0.013	31500	0.016	92500	hz137G11D10-1.2 (antibody, human IgG1, kappa, V domains shown, Humanized, human IgG1/kappa) VH: QVQLQESGPGLVKPSQTLSLTCTVSGYSITSDYAWNWIRQHPGKGLEWIGYITYSASTSYNPSLKSRVTISRDTSKNQFFLKLSSVTAADTAVYYCARGAGTYYFDYWGQGTLVTVSS VL: ETTLTQSPAFMSATPGDKVNISCITSTDIDEDMNWYQQKPGEAAKLIISEDNSLRPGIPPRFSSSGYGTDFTLTINNIESEDAAYYFCLQTNNLPLTFGQGTKVEIKR	
0.16	0.000469	2.92e+06										0.054	225000	0.011	30700	0.012	86800	hz137G11D10-3.2 (antibody, human IgG1, kappa, V domains shown, Humanized, human IgG1/kappa) VH: QVQLQESGPGLVKPSQTLSLTCTVSGYSITSDYAWNWIRQHPGKGLEWIGYITYSASTSYNPSLKSRVTISRDTSKNQFFLKLSSVTAADTAVYYCARGAGTYYFDYWGQGTLVTVSS VL: DIQMTQSPSSLSASVGDRVTITCITSTDIDEDMNWYQQKPGKAPKLLISEDNSLRPGVPSRFSSSGYGTDFTLTISSLQPEDFATYYCLQTNNLPLTFGQGTKVEIKR	
